The target in assay [1] is T1, human CD19 (human, UniProt P15391 20-556).
T1 construct: CD19 as expressed on Raji, NALM-6 and SU-DHL-6 cells; also called CD19 antigen; B-cell surface antigen B4
T1 sequence: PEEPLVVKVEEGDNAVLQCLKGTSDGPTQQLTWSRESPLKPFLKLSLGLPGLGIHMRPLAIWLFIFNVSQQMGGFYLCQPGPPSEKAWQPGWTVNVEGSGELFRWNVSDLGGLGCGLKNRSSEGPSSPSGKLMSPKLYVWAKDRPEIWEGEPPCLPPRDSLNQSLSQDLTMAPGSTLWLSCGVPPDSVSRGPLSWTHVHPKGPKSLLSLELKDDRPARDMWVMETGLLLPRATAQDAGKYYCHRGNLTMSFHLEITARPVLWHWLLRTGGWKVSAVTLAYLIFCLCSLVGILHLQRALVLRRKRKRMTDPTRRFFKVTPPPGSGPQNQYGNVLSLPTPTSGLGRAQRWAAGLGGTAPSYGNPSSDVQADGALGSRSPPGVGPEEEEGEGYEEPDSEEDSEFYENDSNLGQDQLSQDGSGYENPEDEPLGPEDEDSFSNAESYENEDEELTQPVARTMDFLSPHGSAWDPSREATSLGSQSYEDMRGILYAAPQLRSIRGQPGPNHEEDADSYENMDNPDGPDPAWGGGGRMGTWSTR
The experiment in a line: flow cytometry, Raji cells, MPF vs chimeric FMC63.

In assay [2] the target is T1, human CD19. In words: flow cytometry, Raji cells, MPF vs chimeric FMC63. How it is done: (§1) Binding of the CD19 humanized monoclonal antibodies by flow cytometry to Raji tumor cells (human Burkitt lymphoma, DSMZ ACC319), NALM-6 (human B cell precursor leukemia, DSMZ ACC128) and SU-DHL-6 (human B cell lymphoma, DSMZ ACC572) (all cell lines from DSMZ Braunschweig, Deutschland) was assessed. Cells were incubated with serial dilutions of each humanized monoclonal antibody. An irrelevant human IgG1 was used as a negative control. The cells were washed and detected by a phycoerythrin-labeled (PE) anti-human secondary antibody (eBioscience, CA, USA) and analyzed by flow cytometry. […] From MFI versus antibody concentration curves, Mid-Point Fluorescence (MPF) value for each anti-CD19 humanized antibody was calculated using the software GraphPad Prism 5 (CA, USA).
This is another data set of the same source.

In assay [3] the target is T1, human CD19. In words: flow cytometry, Raji cells, MPF vs chimeric FMC63. How it is done: as §1
The source holds these as a separate data set.

The target of assay [4] is T1, human CD19. In words: flow cytometry, NALM-6 cells, MPF vs chimeric FMC63.
The target of assay [5] is T1, human CD19. In words: Scatchard analysis, Eu3+-labelled antibody on Raji cells. How it is done: Raji cells as described in Example 2 were grown in RPMI-1640 medium (Chemie Brunschwig AG, PAA, Basel, Switzerland) supplemented with 10% fetal bovine serum (FBS, Chemie Brunschwig AG, PAA, Basel, Switzerland), 2 mM ultraglutamine 1 (Lonza, Verviers, Belgium) and 1% penicillin/streptomycin (Chemie Brunschwig AG, PAA, Basel, Switzerland). The cells were washed with the same culture medium and adjusted to a final concentration of 1×10⁶ cells/ml. A 100 μl volume of Raji cells was seeded in U-bottomed 96-well plate. […] Cells were incubated with Eu³⁺-antibody for 15 minutes on ice to reach equilibrium. The amount of free Eu³⁺-labelled antibodies were measured by transferring aliquots of cell-free supernatant (volumes were empirically adjusted depending on antibody concentration; cells were spun at 1300 RPM for 2 min) into a fresh plate containing 100 μl of Delfia solution (PerkinElmer, MA, USA; an enhancer of Eu³⁺ fluorescence). To ensure complete removal of the supernatant, cells were spin down once more at 1300 RPM for 2 minutes. After the second centrifugation, the supernatant was discarded, and cells were washed twice with 200 μl of cold binding buffer (PBS-2.5% FBS-0.05% NaN₃). Cell pellets were resuspended into 100 μl of Delfia solution.

Assay [6] concerns the target T1, human CD19. The experiment in a line: competition with 0.2 nM Eu3+-labelled chimeric FMC63 on Raji cells. As for the experimental part:
To that aim, 100 μl volumes of Raji cells in RPMI-1640 medium (Chemie Brunschwig AG, PAA, Basel, Switzerland) supplemented with 10% fetal bovine serum (FBS, Chemie Brunschwig AG, PAA, Basel, Switzerland), 2 mM ultraglutamine 1 (Lonza, Verviers, Belgium) and 1% penicillin/streptomycin (Chemie Brunschwig AG, PAA, Basel, Switzerland), prepared at concentration of 1×10⁶ cells/ml were seeded in a U-bottomed 96-well plate. […] The antibody dilutions were cooled down to 4° C. before 100 μl was taken and added on the Raji cells. […] Cells were incubated with the antibodies for 15 minutes on ice. After reaching equilibrium, the cells were centrifuged at 1300 RPM for 2 minutes and supernatant was discarded. Cell pellets were washed twice with 200 μl of cold binding buffer PBS-2.5% FBS-0.05% NaN₃, and resuspended into 100 μl of Delfia solution. Cell bound Eu³+-FMC63 was measured with time resolved fluorescence as described above. The amount of Eu³+-FMC63 (fmole) per well was determined and plotted versus the total amount of unlabelled antibody.

The target in assay [7] is T1, human CD19. The experiment in a line: flow cytometry on SU-DHL-6 cells, PE-labelled anti-human secondary antibody, MFI against antibody concentration. How it is done: as §1

B1: VH16-R94K/VL43 (antibody, human IgG1)
heavy: not shown
VL: DIVMTQTPSSLSASVGDRVTITCRASQDISKYLNWYQQKPGKAPKLLIYHTSRLHSGVPSRFSGSGSGTDFTLTISSLQPEDFATYYCQQGNTLPYTFGPGTKVDIKRTVAA
notes: Full-length human IgG1/kappa
For B1, the “relative MPF (% of chimeric FMC63)” value with human CD19 [1] was 27.1%; in the assay with human CD19 [2], 26.8%; with human CD19 [3], 26.8%; with human CD19 [4] it was 14.4%. In addition, in the assay with human CD19 [5], the Kd is 47 nM. The Ki with human CD19 [6] amounted to 7.6 nM. Further, the “EC50 (read off the curve)” value in the assay with human CD19 [7] was about 0.2 µg/mL.

The values above are taken from patent publication US20100215651A1 (GLENMARK PHARMACEUTICALS S A, published 2010).
